# According to the nanobody polyreactivity screen of Harvey et al. (2022):
# Experiment: yeast display, Sf9 membrane polyspecificity reagent, FACS + sequencing; frameworks hold sequencing errors
# In short: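 Synthetic nanobody libraries on Saccharomyces cerevisiae BJ5465 were galactose-induced for 36–48 hours, stained 1 hour at 4 °C with 10% biotinylated, detergent-solubilized Sf9 membrane reagent and enriched on streptavidin microbeads. FACS then separated cells into low and high (top ~1%) gates by anti-HA (expression) and streptavidin (reagent binding) fluorescence. Genes were colony-PCR amplified, MiSeq 2 × 250 sequenced and CDR-length filtered. A clone's polyreactivity label is that of its gate of origin.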
row,Sequence,polyreactivity (PSR sort gate)
1,QVQLVESGGGLVQAGGSLRLSCAASGSIFYYNAMGWYRQAPGKERELVAAISQRGTRTYYADSVKGRFTISRDNAKNTVYLQMNSLKPEVTAVYYCAAESSSYYGYYIYYYWGQGTQVTVSS,high polyreactivity
2,QVQLVESGGGLVQAGGSLRLSCAASGSIFYYNAMGWYRQAPGKERELVAAISVSGGSTYYADSVKGRFTISRDNAKNTVYLQMNSLKPEDTAVYYCAAEWLYYYWLPGRADYLEYDYWGQGTQVTVSS,low polyreactivity
3,QVQLVESGGGLVQAGGSLRLSCAASGSIFYYNAMGWYRQAPGKERELVASISERGGITRYADSVKGRFTISRDNAKNTVYLQMNSLKREDTAVYYCNRSISLTFYAYAGYFLALDYWGQGTQVTVSS,low polyreactivity
4,QVQLVESGGGLVQAGGSLRLSCAASGSIFYYNAMGWYRQAPGKERELVATIRSGGNTNYADSVKGRFTISRDNAKNTVYLQMNSLKPEDTAVYYCAARGAYHGYRYDSWGQGTQVTVSS,low polyreactivity
5,QVQLVESGGGLVQAGGSLRLSCAASGSIFYYNAMGWYRQAPGTERELVAAITSSGGSTYADSVKGRFTISRDNAKNTVYLQMNSLKPEDTAVYYCATVAHGLWSGSGYIYAYDYWGQGTQVTVSS,low polyreactivity
6,QVQLVESGGGLVQAGGSLRLSCAASGSIFYYNAMGWYRQAPGTERELVAAITSSGGSTYYADSVKGRFTISRDNAKNTVYLQMNSLKPEDTAVYYCNADQDAYYLVYIATYDYWGQGTQVTVSS,low polyreactivity
7,QVQLVESGGGLVQAGGSLRLSCAASGSIFYYNTMGRYRQAPGKERELVAAIRFDDGSTYYADSVKGRFTISRDNAKNTVYLQMNSLKPEDTAVYYCAADWIVVSEFGLDYHMDYWGQGTQVTVSS,low polyreactivity
8,QVQLVESGGGLVQAGGSLRLSCAASGSIFYYTNTMGWYRQAPGKERELFAAISSSGGTTYADSVKGRFTISRDYSKNTVYLQMNSLKPEDSAVYYCALDCVLKTYVRGTYDYWGQGTQVTVSS,high polyreactivity
9,QVQLVESGGGLVQAGGSLRLSCAASGSIFYYYAMGWYRLAAGKERELVAAINSGGSTYADSVKGRFSISRDNAKNTVYLQMNSLIPEDSAVYYSATDIHSVDNNRDKHDYDYWGQGTQVTVSS,low polyreactivity
10,QVQLVESGGGLVQAGGSLRLSCAASGSIFYYYAMGWYRQAPGKERELVAAISRSGGSTYYADSVKGRFTISRDNAKNTVYLQMNSLKPEDTAVYYCNVAYGLQPYDYWGQGTQVTVSS,high polyreactivity
11,QVQLVESGGGLVQAGGSLRLSCAASGSIFYYYAMGWYRQAPGKERELVAAISTSSGRTYYADSVKGRFTISRDNAKNTVYLQMNSLKPEDTAVYYCATRYRRDGGSWGQGTQVTVSS,high polyreactivity
12,QVQLVESGGGLVQAGGSLRLSCAASGSIFYYYAMGWYRQAPGKERELVAAISYGGTRTYYADSVKGRFTISRDNAKNTVYLQMNSLKPEDTAVYYCAASQYSFKGRDYDYWGQGTQVTVSS,low polyreactivity
13,QVQLVESGGGLVQAGGSLRLSCAASGSIFYYYAMGWYRQAPGKERELVAAITVSGGRTYYADSVKGRFTISRDNAKNTVYLQMNSLKPEDTAVYYCAAQIYGKYDYWGQGTQVTVSS,low polyreactivity
14,QVQLVESGGGLVQAGGSLRLSCAASGSIFYYYAMGWYRQAPGKERELVAAITVSGGSTYYADSVKGRFTISRDNAKNTVYLQMNSLKPEDTAVYYCAAVSLFRDSQFDYWGQGTQVTVSS,low polyreactivity
15,QVQLVESGGGLVQAGGSLRLSCAASGSIFYYYAMGWYRQAPGKERELVASITSGGRTYYADSVKGRFTISRDNAKNTVYFQMNSLKPEDTAVYYCAAVYGGLTLTRNYNWGQGTQVTVSS,high polyreactivity
16,QVQLVESGGGLVQAGGSLRLSCAASGSIFYYYAMVWSRQAPGKERELVAAISSGGRTYYADSVKGRFTISRDNAKYTVYLQMNSLKPEDTAVYYCAAVLRSNRGGYWGQGTQVTVSS,high polyreactivity
17,QVQLVESGGGLVQAGGSLRLSCAASGSIFYYYPMGWYRQAPGKERELVAAINSVGSTYADSVKGRFTISRDNAKNTVYLQMNSLKPEDSAVYYCENYYWGQGTQVTVSS,low polyreactivity
18,QVQLVESGGGLVQAGGSLRLSCAASGSIFYYYTMGWYRQAPGKERELVAAINSGGNTYYADSVKGRFTISRDNAKNTVYLQMNSLKPEDTAVYYCAAGPLYYDYDYWGQGTQVTVSS,low polyreactivity
19,QVQLVESGGGLVQAGGSLRLSCAASGSIFYYYTMGWYRQSPGKERELVAAIRWSSGTTYYADSVKGRFTISRDKAKNTVYLQINSLKPEDTAVYYCAAGGHARTWYAYYYWGQGTQVTVSS,low polyreactivity
20,QVQLVESGGGLVQAGGSLRLSCAASGSIFYYYVRGWYRQAPGKEREFVAAISWGGDSTYYADSVKGRFTISRDNAKNTFYLQMNSLQPEDTAVYYCNADYPWSVVGYDYWAQGTQVTVSS,low polyreactivity
21,QVQLVESGGGLVQAGGSLRLSCAASGSIHSLYTMGWYRQAPGKERELVARISRSGGSTYYADSVKGRFTISRDYAKNTVYLQMNSLKPEDTAVYYCADERKNKYDYWGQGTQVTVSS,high polyreactivity
22,QVQLVESGGGLVQAGGSLRLSCAASGSIIDLYAMGWYRQAPGKERELVAAISFSGGSTYYADSVKGRFTISRDNAKNTVYLQMNSLKPEDTAVYYCAKDVRRTLRFRAFDYWGQGTQVSVSS,low polyreactivity

row,Sequence,polyreactivity (PSR sort gate)
1,QVQLVESGGGLVQAGGSLRLSCAASGSIIFRYAMGWSRQAPGKERELVARISWGGGRTYYADSVKGRFTISRDNAQNTVYLQMNSLKPEDSAVYYCNRAFWVNPGGFDYWGQGTQVTVSS,high polyreactivity
2,QVQLVESGGGLVQAGGSLRLSCAASGSIIFYYAMGWYRQAPGKERDFVAGITYSGGITYYADSVKGRFTISRDNAKNTVYLQMNSMKPEDTAVYFCDYGGGVYQYGYWGQGTQVTVSS,low polyreactivity
3,QVQLVESGGGLVQAGGSLRLSCAASGSIIGDNTMGWYRPAPGKERELVAAISSSGSTYYADSVKGRFTISRDNAKNTVYLQMNSLKPEDTAVYYCAAYDYGHVEYGYWGQGSQVTVSS,low polyreactivity
4,QVQLVESGGGLVQAGGSLRLSCAASGSIIGRYTMGWYRQAPGKERELVAAISRSGGSTYYADSVKGRFTISRDNAKNTVYLQMNSLKPEDTAVYYCAARYRAKRRYYYWGQGTQVTVSS,high polyreactivity
5,QVQLVESGGGLVQAGGSLRLSCAASGSIIGVNAMGWYRQAPGKERELVAAISSTGGSTYYADSVKGRFTISRDNAKNTVYLQMNSLKPEDTAVYYCNTDYSKSIGDGYAGFDYWGQGTQVTVSS,low polyreactivity
6,QVQLVESGGGLVQAGGSLRLSCAASGSIIGYYTMGWYRQAPGKEREFVAAISWSGGSTYYADSVKGRFTISRDNAKNTVYLQMNSLKPEDTAVYYCNADVYWEYDYCGQGTQVTVSS,low polyreactivity
7,QVQLVESGGGLVQAGGSLRLSCAASGSIIKWYAMGWYRQAPGKERELVAAISASGGSTYYADSVKGRFTISRDNAKHTVYLQMNSLKPEDTAVYYCNTDHYYSSRHYDYWGQGTQVTVSS,low polyreactivity
8,QVQLVESGGGLVQAGGSLRLSCAASGSIILHNAMGWYRQAPGKERELVAGITGSGGSTYYADSVKGRFTISRDNAMNTVYLQMNSLKPEDTAVYYCAAGSRSRYYRYVYYKYVTMDYWGQGTQVTVSS,high polyreactivity
9,QVQLVESGGGLVQAGGSLRLSCAASGSIILHYAMGRYRHAPRKERELVAVIRGGGSTNYADSVKGRFTISRDNAKNSVYLQMNSLKPEDSAVYYCAADYEAYRYDFWGQGTQVTVSS,high polyreactivity
10,QVQLVESGGGLVQAGGSLRLSCAASGSIINAYAMGWYRPAPGKERELVAAINSGGTTYYADSVKGRFTISRDNAKNTVYLQMISLKPEDTAVYYCNAVSKWAIYDYWGQGTQVTVSS,high polyreactivity
11,QVQLVESGGGLVQAGGSLRLSCAASGSIISYYAMGWYRQAPGKERELVAAISWSGGSTYYADSVKGRFTISRDNAKNTVYLQMNSLKPEDTAVYYCNTVRRLKRYSSYGHDYWGQGTQVTVSS,high polyreactivity
12,QVQLVESGGGLVQAGGSLRLSCAASGSIITGYAMGWYRQAPGKERELVAAITGNAGSTYYADSVKGRFTISRDNAKNTVYLQMNSLKPEDTAVYYCNARSWYVRVDYWGQGTQVTVSS,low polyreactivity
13,QVQLVESGGGLVQAGGSLRLSCAASGSIIVLNAMGWYRQAPGKERELVAAITSGGSTYYADSVKGRFTISRDNAKNTVYLQMNSLKPEDTAVYYCNALDLSPSYKYDYWGQGTQVTVSS,low polyreactivity
14,QVQLVESGGGLVQAGGSLRLSCAASGSIIVWNAMGWYRQAPGKERELVAAITWSGVTTYYADSVKGRFTISRDNAKNTVYLQMNSLKPEDTAVYYCAAGRTRRKFDYWGQGTQVTVSS,low polyreactivity
15,QVQLVESGGGLVQAGGSLRLSCAASGSIIVYNTMGWYRQAPGKERGLVAAITVRDDSTYYADSVKGRFTISRDNAKNTVYLQMNSLKPEDTAVYYCNVRKTWYGYSVTGRYDYWGQGTEVTVSS,low polyreactivity
16,QVQLVESGGGLVQAGGSLRLSCAASGSIIYRYVMGWYRQAPGKERESVAAISWRGTNTYADSVKGRFTISRDNAKNTVYLQMNSLKPEDTAVYYCAARKWDRYRDFEYWGQGTQVTVSS,high polyreactivity
17,QVQLVESGGGLVQAGGSLRLSCAASGSIIYTNAMGRYRQAPGKEREVVAAITGTTTTNYADSVKGRFTISRDNAKNTVYVQMNSLKPEDTAVYYCNADYDRSRVYYSVELYDYWGQGTQVTVSS,low polyreactivity
18,QVQLVESGGGLVQAGGSLRLSCAASGSIIYWYAMGWYRQAPGKERELVADISRGGITYYADSVKGRFTISRDNAKNTVYLQMNSLKPEDTAVYYCSKTHYGVQRLDSWGQGTQVTVSS,low polyreactivity
19,QVQLVESGGGLVQAGGSLRLSCAASGSIIYYNAMGWYRQAPAKERELVAAITGSGGSTYYADSVKGRFTISRDNAINTVYLQMNSLKPEDTAVYDCAADYSLYGWWFRNDYWGQGTQVTVSS,low polyreactivity
20,QVQLVESGGGLVQAGGSLRLSCAASGSIIYYYAMGWYRQAPGKERELVAAISASGGRTYYADSVKGRFTISRDNAKNTVYLQMNSLKPEDTAVYYCAKRGTLGSYYYWGQGTQVTVSS,high polyreactivity
21,QVQLVESGGGLVQAGGSLRLSCAASGSIKDNVMGWYRQAPGKERELVAAITRSAGRTYYADSVMGRFTISRDNEKNTVYLQMNSLKPEDTAVYYCASQAERYGYEYWGQGTQVTVSS,low polyreactivity
